The values that follow come from patent US20160024214A1 (Novo Nordisk, published 2016).

For assay [1], the target named is T1, human NKG2D (hNKG2D) on the cell surface (human, UniProt P26718 1-216).
T1 construct: BaF/3 cells co-transfected with full-length NKG2D and DAP10, or native receptor on human NK, CD8+ and gamma-delta T cells of PBMC / whole blood; also called cell-surface NKG2D; NKG2D/DAP10-expressing BaF/3 cells
T1 chain: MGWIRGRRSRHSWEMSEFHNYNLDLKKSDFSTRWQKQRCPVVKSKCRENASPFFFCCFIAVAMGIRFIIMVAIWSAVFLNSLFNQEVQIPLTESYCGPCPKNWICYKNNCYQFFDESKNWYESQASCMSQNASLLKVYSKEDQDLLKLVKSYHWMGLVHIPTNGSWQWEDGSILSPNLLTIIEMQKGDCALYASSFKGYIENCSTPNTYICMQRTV
The assay can be described thus: flow cytometry, NKG2D/DAP10 BaF/3 cells, dose-response. (Flow cytometry measures light scatter and fluorescence of single cells or particles in a stream.)

Assay [2] addresses T1, human NKG2D (hNKG2D) on the cell surface. The assay can be described thus: flow cytometry, NKG2D-expressing cells; pre-incubation with 149810, then ON72 as competitor (post-incubation antibody).
Assay [3] has the same target. Put plainly: flow cytometry, NKG2D-expressing cells; 149810 first, then 16F16 as competitor.
Assay [4] shares this target. Put plainly: flow cytometry, NKG2D-expressing cells; ON72 first, then 16F16 as competitor.
For assay [5] the target is unchanged. Put plainly: flow cytometry, NKG2D/DAP10 BaF/3 cells; antibody pre-incubated, then 1 µg hFc-MICA as competitor.
For assay [6] the target is unchanged. Put plainly: cell-based or functional assay.
The target in assay [7] is recombinant NKG2D-Fc (R&D Systems) (human) (UniProt P26718). The assay can be described thus: SPR (Biacore), antibody over immobilised NKG2D-Fc, Langmuir fit. Background: In SPR one partner is held on a chip, and binding of the other changes the refractive index at the surface.
The target in assay [8] is T1, human NKG2D (hNKG2D) on the cell surface. Put plainly: flow cytometry, NKG2D/DAP10 BaF/3 cells; antibody pre-incubated, then 1 µg hFc-MICA as competitor.
Assay [9] has the same target. The assay can be described thus: flow cytometry, NKG2D-expressing cells; ON72 first, then 16F16 as competitor (FIG. 9A legend).
The target of assay [10] is T2, soluble hNKG2D fragment (residues 81-216 of SEQ ID NO:2) (human, UniProt P26718 81-216).
T2 construct: Homodimer in the crystal with two hzON72 Fab molecules
T2 sequence: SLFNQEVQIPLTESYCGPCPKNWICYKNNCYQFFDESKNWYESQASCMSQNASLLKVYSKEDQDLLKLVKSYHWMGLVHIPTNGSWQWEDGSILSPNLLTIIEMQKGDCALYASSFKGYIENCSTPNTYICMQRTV
Put plainly: complex purified by gel filtration; X-ray crystal structure 3.15 Å. (SEC sorts molecules by how far they enter the pores of the column.)

Values joined by “and” are separate entries in the source; they are usually repeats but may differ in a detail not shown here. Identical values can stand only once. Like-named read-outs stand apart in the source and are kept apart here.

Regarding “149810 (murine anti-hNKG2D antibody, R&D Systems)”, the EC50 (in general, the concentration that produces a half-maximal response) in [1] is 0.063 µg/mL and 0.042 nM. For the same molecule, the Inhibition (%) in assay [2] worked out at 85%. The molecule further yielded a % blockade of 16F16 binding in assay [3] of 50%.

The molecule “ON72 (murine anti-hNKG2D antibody, Beckman Coulter)” yielded a % of 16F16 binding blocked in [4] of 82%. Moreover, the half-maximal effective concentration (EC50) in [1] was 0.062 µg/mL and 0.048 nM. For the same molecule, in assay [5], the IC50 (in general, the midpoint of a concentration-inhibition curve) was 0.02 nM and the full blockade of 1 µg MICA-Fc stood at 0.24 nM. Further, in assay [6], the % proliferation of PBMC, stimulation CD3 0.1 + CD28 + ON72 (immobilized) turned out to be 22.9%; the % proliferation of PBMC, stimulation CD3 0.1 + ON72 (immobilized) came out at 7.12%; the % proliferation of PBMC, stimulation CD3 0.3 + CD28 + ON72 (immobilized) amounted to 40.1%; the % proliferation of PBMC, stimulation CD3 0.3 + ON72 (immobilized) is 28.4%. Moreover, in assay [6], the EC50 (µg/ml), inhibition of NK-cell killing of ULPB3-expressing target cells (51Cr release) is 0.065 µg/mL; the down-modulation of cell-surface NKG2D, NKG2D/DAP10 BaF/3 cells, overnight, 1 µg was found to be 55%; the internalization of NKG2D at 1 h, NKG2D+ lymphocytes in whole blood, 0.1 µg/ml was 50 to 75%; the internalization of NKG2D at 24 h, NKG2D+ lymphocytes in whole blood, 0.1 µg/ml came to 100%. In [7], the Kd (commonly the equilibrium constant for the complex coming apart) was 0.17 nM; the koff (commonly a measure of how fast the partners let go of each other) is 0.00011 s⁻¹; the kon (as a rule, the rate constant with which the complex forms) is 960000 M⁻¹ s⁻¹. Further, in assay [8], the IC50 was 0.019 µg/mL and the full blockade of 1 µg MICA-Fc is 0.54 µg/mL. In [9], this molecule yielded a % of 16F16 binding prevented of 85%.

B1: hzON72 Fab (humanized version of ON72 Fab fragment) (Fab, V domains shown)
VH: QVQLVQSGAEVKKPGASVKVSCKASGYTFTNYWMHWVRQAPGQGLEWMGEIDPSDIYTNYAQKFQGRVTMTRDTSTSTVYMELSSLRSEDTAVYYCARGIYDGYYVYGMDYWGQGTTVTVSS
VL: YIQMTQSPSSLSASVGDRVTITCRSSQDISNYLNWYQQKPGKAPKLLIYYTSRLHSGVPSRFSGSGSGTDFTFTISSLQPEDIATYYCQQGKTLPRTFGGGTKVEIKR
In the case of B1, the binding result in assay [10] was “binds”.

B2: 16F16 (recombinantly expressed, IgG4 isotype) (antibody, V domains shown)
VH: EVQLVESGGGLVKPGGSLRLSCAASGFTFSSYSMNWVRQAPGKGLEWVSSITSSSSYIYYADSVKGRFTISRDNAKNSLYLQMNSLRAEDTAVYYCARDRRYFDWFPLDYRGQGTLVTVSS
VL: DIQMTQSPSSLSASVGDRVTITCRASQGISSWLAWYQQKPEKAPKSLIYAASSLQSGVPSRFSGSGSGTDFTLTISSLQPEDFATYYCQQYNGYPYTFGQGTKLEIKR
notes: Fully human anti-hNKG2D antibody from KM mouse hybridoma; variable regions cloned into human IgG4 framework, expressed in HEK293 cells, protein A purified; also called 16F16 IgG4; 16F16 (IgG4)
The molecule B2 had an EC50 in assay [1] of 0.034 nM.
